T1: full length cyno SIRPα stably expressed on CHOK1 cells (cynomolgus monkey, UniProt A0A2K5VYQ9 31-507)
T1 construct: whole, on cells; also called CHOK1-cyno SIRPα-2A2 cells; CHOK1-cyno SIRPα
T1 sequence: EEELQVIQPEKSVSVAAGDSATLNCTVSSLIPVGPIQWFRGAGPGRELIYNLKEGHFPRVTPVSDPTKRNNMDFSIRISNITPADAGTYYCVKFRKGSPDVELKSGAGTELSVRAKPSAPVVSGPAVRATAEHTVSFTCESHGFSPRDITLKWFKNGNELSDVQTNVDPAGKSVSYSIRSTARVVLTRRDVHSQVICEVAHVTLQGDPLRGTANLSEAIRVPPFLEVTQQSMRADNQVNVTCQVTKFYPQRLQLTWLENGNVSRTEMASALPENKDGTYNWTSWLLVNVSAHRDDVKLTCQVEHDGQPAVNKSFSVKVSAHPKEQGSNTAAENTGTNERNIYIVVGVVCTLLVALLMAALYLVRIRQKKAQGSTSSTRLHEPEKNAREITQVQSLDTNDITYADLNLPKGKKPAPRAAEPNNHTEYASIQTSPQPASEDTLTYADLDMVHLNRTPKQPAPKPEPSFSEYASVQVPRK

T2: full length C57BL/6 mouse SIRPα stably expressed on CHOK1 cells (mouse (C57BL/6), UniProt P97797 32-513)
T2 construct: whole, on cells; also called CHOK1-C57BL/6 mouse SIRPα-2.22 cells
T2 sequence (looked up): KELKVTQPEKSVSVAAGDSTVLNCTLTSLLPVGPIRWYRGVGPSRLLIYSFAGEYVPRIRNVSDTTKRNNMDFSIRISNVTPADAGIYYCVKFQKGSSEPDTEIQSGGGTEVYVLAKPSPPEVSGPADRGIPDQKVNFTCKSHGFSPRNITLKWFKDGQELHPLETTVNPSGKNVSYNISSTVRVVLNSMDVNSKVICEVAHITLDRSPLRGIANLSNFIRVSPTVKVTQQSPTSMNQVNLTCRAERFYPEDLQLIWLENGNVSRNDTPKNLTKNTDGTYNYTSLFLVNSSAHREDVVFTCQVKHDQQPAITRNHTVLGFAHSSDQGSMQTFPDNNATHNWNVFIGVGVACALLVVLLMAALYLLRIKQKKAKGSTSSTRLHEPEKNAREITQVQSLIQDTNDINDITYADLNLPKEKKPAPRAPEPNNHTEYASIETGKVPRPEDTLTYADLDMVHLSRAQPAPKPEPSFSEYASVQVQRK


How the values were obtained:
[1] = molecular target: T3, biotin labeled soluble human SIRPα v1 ECD recombinant protein (human, UniProt P78324 31-373, biotin labeled); experiment: competitive ELISA; competitor 002
T3 construct: extracellular domain
Protocol: (§1) Competitive ELISA assay was used for epitope binning of 9 functional antibodies. Briefly excessive competitor antibody and biotin labeled soluble human SIRPα v1 ECD recombinant protein were co-incubated with ELISA microplate coated antibody. After washing, HRP-SA was added and incubated at 37° C. for 1 hour. Then, […] of TMB solution (Biotechnology) was added. After incubation for 15 minutes at room temperature, the reaction was stopped by the addition of […] of 1N HCl. OD 450 nm was read. Competition ratio was calculated. The antibodies that can compete each other for binding to SIRPα have the similar binding epitope.

[2] = molecular target: T3, biotin labeled soluble human SIRPα v1 …; experiment: competitive ELISA; competitor 032
Protocol: as §1

[3] = molecular target: T1, full length cyno SIRPα stably expressed …; experiment: FACS on CHOK1 cells
[4] = molecular target: T2, full length C57BL/6 mouse SIRPα stably …; experiment: FACS on CHOK1 cells
[5] = molecular target: T3, biotin labeled soluble human SIRPα v1 …; experiment: competitive ELISA; competitor KWAR23
Protocol: as §1

% Competition [1] [%] | % Competition [2] [%] | MFI at 10 nM [3] [MFI] | binding result [4] | % Competition [5] [%] | binding result [3] | Binder
6 | 4 | 6430 | no binding (tested: 100 nM) | 1 | – | Antibody 022 (hybridoma antibody) (antibody, V domains shown, mouse hybridoma antibody) VH: QIQLVQSGPELKKPGETVKISCKASGYTFTDYAMHWVKQAPGKGLKWMGWKNTETGESTYAEDFKGRFAFFLETSASTAYLQINNVKNEDTATYFCARGGYGSNYVMDYWGQGTSVIVSS VL: DIQMTQSSSSFSVSLGDRVTITCKASEDIYNRLAWYQQKPGNAPRLLISGATSLETGVPSRFSGSGSGKDYTLSITSLQTEDVATYYCQQYWNSPRTFGGGTKLEIK
86 | 89 | 8310 | – | -6 | – | Antibody 035 (hybridoma antibody) (antibody, V domains shown, mouse hybridoma antibody) VH: QIQLVQSGPELRKPGETVKISCKASGYSFTNYAMNWVKQAPGKVLKWMGFINTYTGEPTYADDFKGRFAFSLETSASTAYLQINNLKNEDTATYFCTRTRGYYDFDGGAFDYWGQGTSLTVSS VL: DIVMTQSQKFMSTSIGDRVSVTCKASQNVGTHLAWYQQKPGQSPKALIFSASYRYIGVPDRFTGSGSGTDFTLTITNVQSEDLAEYFCQQYNTYPLTFGAGTKLELK
1 | 4 | – | no binding (tested: 100 nM) | -4 | no binding (tested: 10 nM) | Antibody 060 (hybridoma antibody) (antibody, V domains shown, mouse hybridoma antibody) VH: QVQLKESGPGLVAPSESLSITCTVSGFSLTNYDISWIRQSPGKGLEWLGVIWTGGDTNFNSAFMSRLSISKDKSKSQVFLKLNSLQTDDTAIYYCVRVQYFGGSYGPMDYWGQGISVTVSS VL: DIQMTQASSYLSVSLGGRVTITCEASDHINDWLAWYQQTPGNAPRLLISGATSLETGVPSRFSGSGSGKDYTLSITSLQTEDIATYYCQQYWNTPLTFGAGTRLELK
14 | 34 | 14300 | no binding (tested: 100 nM) | -14 | – | Antibody 074 (hybridoma antibody) (antibody, V domains shown, mouse hybridoma antibody) VH: QVQLQQPRAELVKPGASVMLSCKASGYTFSSYWIHWVRQGPGQGLEWIGLIHPNSGNTDCSETFKNKATLTVDTSSSTAYMQLSSLASEDSAVYYCARDGASYDWFVHWGQGTLVTVSA VL: not shown
95 | 96 | 8030 | no binding (tested: 100 nM) | 83 | – | Antibody 001 (hybridoma antibody) (antibody, V domains shown, mouse hybridoma antibody) VH: EVKLEESGGGLVQPGGSMKLSCVASGFTFRNYWMNWVRQSPERGLEWIAEISLKSNTYATHYAESVKGRFAISRDGSKSSFYLQMNDLRAEDTGIYYCTTFTKVVADWHLDVWGAGTTVTVSS VL: DVLMTQTPLSLPVSLGDQASISCRSSQNIVHSNGNTYLEWYLQKPGQSPKLLIYKVSNRFSGVPDRFSGSGSGTDFTLRISRVEAEDLGVYYCFQGSHVPFTFGSGTKLEIK
90 | 92 | 7540 | no binding (tested: 100 nM) | 71 | – | Antibody 002 (hybridoma antibody) (antibody, V domains shown, mouse hybridoma antibody) VH: EVKLEESGGGLVQPGGSMILSCVASGFTFRNYWMNWVRQSPERGLEWIAEITLKSNTYATHYAESVKGRFAISRDDSKSSFYLQMNDLRPEDTGIYYCTTFTKVVADWHLDVWGAGTTVTVSS VL: DVLMTQTPLSLPVSLGDQASISCRSSQNIVHSNGNTYLEWYLQKPGQSPKLLIYKISNRFSGVPDRFSGSGSGTDFTLRISRVEAEDLGVYYCFQGSHVPFTFGSGTKLEIQ
93 | 94 | 6860 | no binding (tested: 100 nM) | 69 | – | Antibody 032 (hybridoma antibody) (antibody, V domains shown, mouse hybridoma antibody) VH: EVRLEESGGGLVQPGGSMKLSCVVSGFTFRNYWMNWVRQSPERGLEWIAEITLKSNTYATHYAESVKGRFAISRDDSKSSFYLQMNDLRPEDTGIYYCTTFTKVVADWHLDVWGAGTTVTVSS VL: DVLMTQTPLSLPVNLGDQASISCRSSQNIVHSNGNTYLEWYLQKPGQSPKLLIYKVSNRFSGVPDRFSGSGSGTDFTLRISRVEAEDLGVYYCFQGSHVPFTFGSGTKLEIK
81 | 91 | – | – | 94 | no binding (tested: 10 nM) | reference antibody HEFLB (antibody, V domains shown) VH: EVQLVQSGAEVKKPGESLRISCKASGYSFTSYWVHWVRQMPGKGLEWMGNIDPSDSDTHYSPSFQGHVTLSVDKSISTAYLQLSSLKASDTAMYYCVRGGTGTLAYFAYWGQGTLVTVSS VL: DVVMTQSPLSLPVTLGQPASISCRSSQSLVHSYGNTYLYWFQQRPGQSPRLLIYRVSNRFSGVPDRFSGSGSGTDFTLKISRVEAEDVGVYYCFQGTHVPYTFGGGTKVEIK
49 | 82 | – | – | 95 | – | reference antibody KWAR23 (antibody, V domains shown) VH: EVQLQQSGAELVKPGASVKLSCTASGFNIKDYYIHWVQQRTEQGLEWIGRIDPEDGETKYAPKFQDKATITADTSSNTAYLHLSSLTSEDTAVYYCARWGAYWGQGTLVTVSS VL: QIVLTQSPAIMSASPGEKVTLTCSASSSVSSSYLYWYQQKPGSSPKLWIYSTSNLASGVPARFSGSGSGTSYSLTISSMEAEDAASYFCHQWSSYPRTFGAGTKLELK
3 | 8 | 13600 | no binding (tested: 100 nM) | 0 | – | Antibody 050 (hybridoma antibody) (antibody, V domains shown, mouse hybridoma antibody) VH: QIQLVQSGPELKKPGETVKISCKASGYTFTHYSMHWVKQAPGKGLKWMGWINTETAEPTYVDDFKGRFAFSLEASASTAFFQINNLKNEDTATYFCARGGLRQGDYWGQGTTLTVSS VL: QIVLTQSPPIMSASPGEKVTLTCSATSSVSASYLYWFQQKPGSSPKLWIYSTSNLASGVPARFSGSGSGTSYSLTISNMEPADAASYFCHQWSSYPYTFGGGTKLEIK

From patent US20210347908A1 (ELPISCIENCE SUZHOU BIOPHARMA, published 2021)
